In paper PMC5338925, “Human Nup98 regulates the localization and activity of DExH/D-box helicase DHX9” (eLife, 2017):

T1: GST-Nup98^1–863 (human, UniProt P52948-4 1-863)
T1 construct: Nup98, human, residues 1-863; Held on glutathione magnetic agarose beads by its GST; also called GST-Nup98 (bead halo bait); source: purified recombinant protein (E. coli BL21-CodonPlus(DE3), glutathione-Sepharose 4B)
T1 sequence (looked up): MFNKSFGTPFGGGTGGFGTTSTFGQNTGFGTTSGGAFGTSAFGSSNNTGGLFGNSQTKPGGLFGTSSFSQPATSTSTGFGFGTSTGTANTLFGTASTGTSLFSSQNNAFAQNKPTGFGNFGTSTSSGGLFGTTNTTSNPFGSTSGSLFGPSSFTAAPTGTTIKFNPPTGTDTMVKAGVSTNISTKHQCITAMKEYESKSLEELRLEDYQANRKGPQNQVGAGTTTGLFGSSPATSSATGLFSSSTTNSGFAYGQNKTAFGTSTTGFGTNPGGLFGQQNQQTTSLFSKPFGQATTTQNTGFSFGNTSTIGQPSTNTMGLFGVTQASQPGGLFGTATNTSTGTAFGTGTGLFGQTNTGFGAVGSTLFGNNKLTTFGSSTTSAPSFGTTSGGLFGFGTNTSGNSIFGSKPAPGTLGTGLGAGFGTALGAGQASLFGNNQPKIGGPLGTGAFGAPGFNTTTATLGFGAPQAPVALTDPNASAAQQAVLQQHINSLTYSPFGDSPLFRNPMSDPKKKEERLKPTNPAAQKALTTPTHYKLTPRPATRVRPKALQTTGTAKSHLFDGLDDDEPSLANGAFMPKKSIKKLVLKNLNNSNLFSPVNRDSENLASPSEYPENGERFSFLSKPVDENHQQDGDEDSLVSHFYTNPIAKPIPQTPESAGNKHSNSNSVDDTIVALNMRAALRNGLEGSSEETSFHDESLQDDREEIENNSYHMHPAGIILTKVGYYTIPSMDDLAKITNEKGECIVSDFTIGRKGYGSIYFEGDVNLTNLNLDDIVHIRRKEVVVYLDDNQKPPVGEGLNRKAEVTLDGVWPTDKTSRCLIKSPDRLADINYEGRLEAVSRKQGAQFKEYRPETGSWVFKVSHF

B1: DHX9 1–380 tagged with eGFP (domain or fragment, human, UniProt Q08211 1-380, looked up)
chain: MGDVKNFLYAWCGKRKMTPSYEIRAVGNKNRQKFMCEVQVEGYNYTGMGNSTNKKDAQSNAARDFVNYLVRINEIKSEEVPAFGVASPPPLTDTPDTTANAEGDLPTTMGGPLPPHLALKAENNSEVGASGYGVPGPTWDRGANLKDYYSRKEEQEVQATLESEEVDLNAGLHGNWTLENAKARLNQYFQKEKIQGEYKYTQVGPDHNRSFIAEMTIYIKQLGRRIFAREHGSNKKLAAQSCALSLVRQLYHLGVVEAYSGLTKKKEGETVEPYKVNLSQDLEHQLQNIIQELNLEILPPPEDPSVPVALNIGKLAQFEPSQRQNQVGVVPWSPPQSNWNPWTSSNIDEGPLAFATPEQISMDLKNELMYQLEQDHDLQA
notes: also called N-terminal region (residues 1–380); N-terminal domain of DHX9-GFP; source: purified recombinant protein; not shown: eGFP, C-terminal, kept
B2: DHX9 821–1270 tagged with eGFP (domain or fragment, human, UniProt Q08211 821-1270, looked up)
chain: IEPPPLDAVIEAEHTLRELDALDANDELTPLGRILAKLPIEPRFGKMMIMGCIFYVGDAICTIAAATCFPEPFINEGKRLGYIHRNFAGNRFSDHVALLSVFQAWDDARMGGEEAEIRFCEHKRLNMATLRMTWEAKVQLKEILINSGFPEDCLLTQVFTNTGPDNNLDVVISLLAFGVYPNVCYHKEKRKILTTEGRNALIHKSSVNCPFSSQDMKYPSPFFVFGEKIRTRAISAKGMTLVTPLQLLLFASKKVQSDGQIVLVDDWIKLQISHEAAACITGLRAAMEALVVEVTKQPAIISQLDPVNERMLNMIRQISRPSAAGINLMIGSTRYGDGPRPPKMARYDNGSGYRRGGSSYSGGGYGGGYSSGGYGSGGYGGSANSFRAGYGAGVGGGYRGVSRGGFRGNSGGDYRGPSGGYRGSGGFQRGGGRGAYGTGYFGQGRGGGGY
notes: also called C-terminal segment (residues 821–1270); C-terminal domain of DHX9-GFP; source: purified recombinant protein; not shown: eGFP, C-terminal, kept

What was measured:
GST-DHX9 (human) = GST-DHX9 (human) (UniProt Q08211)
GST-Nup98^1–863 = molecular target: T1, GST-Nup98^1–863; assay: bead halo assay; GST-Nup98 1-863 held on glutathione magnetic agarose beads (bait); DHX9 domains with C-terminal eGFP (prey) detected by fluorescence microscopy; PBS-T, 10 min, 4 °C; pre-treated with RNase A, poly I:C RNA or buffer alone; details: both partners purified

Molecule | ATPase activity (ATP hydrolysis rate) of GST-DHX9 with excess RNA (poly I:C) and increasing concentrations of GST-Nup98 (GST-DHX9 (human)) | binding result (GST-Nup98^1–863)
GST-Nup98^1–920 (from UniProt P52948-4 1-920) (natural protein) | 5 fold | –
B1 | – | binds
B2 | – | binds
